This passage reports Density per cm^2 and gained mass (ng/cm^2) results from US20250027901A1.

For this assay, the target named is Maleimide-modified SpyTag peptide (MCA-SpyTag). Kind of assay: QCMD, nanobody-SpyCatcher coupling to maleimide-SpyTag peptide on HDT SAM.

Substance “VHH72-8 aa-spyCatcher-3C cleavage site-His8” came in with a Density per cm^2 of 6.5e+12 per cm^2 and a gained mass (ng/cm^2) of 313 ng/cm^2.
